Experimental data taken from US20210024640A1.

Assays:
[1] = target: OX40 on HT1080 OX40 stable cell line (Homo sapiens (Human)) (UniProt P43489)
[2] = target: OX40 on HT1080 OX40 stable cell line (Homo sapiens (Human)) (UniProt P43489); remark: listed apart in the source

OX40 on HT1080 OX40 stable cell line (Homo sapiens (Human)), sequence (P43489 29-277): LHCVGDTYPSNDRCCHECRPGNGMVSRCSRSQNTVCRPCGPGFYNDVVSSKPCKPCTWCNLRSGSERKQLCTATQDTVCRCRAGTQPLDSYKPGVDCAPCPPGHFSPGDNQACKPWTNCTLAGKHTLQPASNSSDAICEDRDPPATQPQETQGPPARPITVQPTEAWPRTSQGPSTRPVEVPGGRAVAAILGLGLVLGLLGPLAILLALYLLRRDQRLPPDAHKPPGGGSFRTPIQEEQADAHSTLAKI

## OX40L-Fc (Fc fusion)
[1]
  EC50 (read off the curve), IL-8 secretion, agonist assay control: 0.3 nM
[2]
  EC50 (read off the curve), IL-8 secretion, antagonist assay control (ligand titration): 0.3 nM
